Substrate in the series: NC(=O)c1ccc[n+]([C@@H]2O[C@H](COP(=O)([O-])OP(=O)(O)OC[C@H]3O[C@@H](n4cnc5c(N)ncnc54)[C@H](O)[C@@H]3O)[C@@H](O)[C@H]2O)c1
The experiment in a line: Enzyme kinetics of PARP15-catalyzed automodification by MLISA. It is filed as biochemical, human. The note with it: other: 500 nM PARP15, NAD+ 5-400 μM, Michaelis-Menten fit; pH 7.4.

This passage reports Km results from PMC5826802.

B1: PARP15 (Homo sapiens) (protein)
chain: NLPEHWTDMNHQLFCMVQLEPGQSEYNTIKDKFTRTCSSYAIEKIERIQNAFLWQSYQVKKRQMDIKNDHKNNERLLFHGTDADSVPYVNQHGFNRSCAGKNAVSYGKGTYFAVDASYSAKDTYSKPDSNGRKHMYVVRVLTGVFTKGRAGLVTPPPKNPHNPTDLFDSVTNNTRSPKLFVVFFDNQAYPEYLITFTA
On to B1, for which the Km was determined as 4.5 ± 2.9 µM.
